Residue numbers refer to the chain shown, from its start. Blank lines part the entries; values can stand above or below the binder they belong to.
Molecular target: T1, Wnt3 (human, UniProt P56703 22-355 at identity 1.00), limits assumed)
T1 chain: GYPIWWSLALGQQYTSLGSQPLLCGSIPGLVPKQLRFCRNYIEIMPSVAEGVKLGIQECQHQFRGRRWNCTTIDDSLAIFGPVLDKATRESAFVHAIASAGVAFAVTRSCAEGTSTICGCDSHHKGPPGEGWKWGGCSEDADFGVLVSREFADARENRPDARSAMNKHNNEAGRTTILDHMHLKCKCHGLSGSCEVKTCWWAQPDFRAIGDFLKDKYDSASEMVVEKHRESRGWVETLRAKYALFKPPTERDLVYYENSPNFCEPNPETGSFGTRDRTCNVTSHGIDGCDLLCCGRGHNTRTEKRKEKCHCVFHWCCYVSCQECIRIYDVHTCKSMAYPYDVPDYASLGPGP
Assay: cell-based or functional assay

Wnt3 antagonist function relative to SFRP-1 (TCF-Luciferase reporter) (% less active): 60
B1: human SFRP-3 (receptor)
chain: AACEPVRIPLCKSLPWNMTKMPNHLHHSTQDNAILAIEQFEGLLGTHCSPDLLFFLCAMYAPICTIDFQHEPIKPCKSVCERARQGCEPILIKYRHSWPENLACEELPVYDRGVCISPEAIVTADGADFPMDSSNGNCRGASSERCKCKPIRATQKTYFRNNYNYVIRAKVKEIKTKCHDVTAVVEVKEILKSSLVNIPRDTVNLYTSSGCLCPPLNVNEEYIIMGYEDEERSRLLLVEGSIAEKWKDRLGKKVKRWDMKLRHLGLSKSDSSNSDSTQSQKSGRNSNPRQARN

Wnt3 inhibitory activity relative to SFRP-1 (TCF-Luciferase reporter): ~20 % of SFRP-1 activity
loss of Wnt3 antagonist activity relative to SFRP-1 (TCF-Luciferase reporter): ~70 % loss of activity
B2: SFRP-1/SFRP-2(1-295/285-295) chimera (receptor)
chain: SEYDYVSFQSDIGPYQSGRFYTKPPQCVDIPADLRLCHNVGYKKMVLPNLLEHETMAEVKQQASSWVPLLNKNCHAGTQVFLCSLFAPVCLDRPIYPCRWLCEAVRDSCEPVMQFFGFYWPEMLKCDKFPEGDVCIAMTPPNATEASKPQGTTVCPPCDNELKSEAIIEHLCASEFALRMKIKEVKKENGDKKIVPKKKKPLKLGPIKKKDLKKLVLYLKNGADCPCHQLDNLSHHFLIMGRKVKSQYLLTAIHKWDKKNKEFKRISRSIRKLQC

Wnt antagonist activity relative to full length SFRP-1 (TCF-Luciferase reporter, U2OS cells): ~80 % of full length SFRP-1 activity
B3: truncated SFRP-1 (Δ167-314) containing the CRD alone (receptor)
chain: SEYDYVSFQSDIGPYQSGRFYTKPPQCVDIPADLRLCHNVGYKKMVLPNLLEHETMAEVKQQASSWVPLLNKNCHAGTQVFLCSLFAPVCLDRPIYPCRWLCEAVRDSCEPVMQFFGFYWPEMLKCDKFPEGDVC

inhibition of the Wnt-mediated upregulation of the 16xTCF-Luciferase reporter in U2OS cells: 90 % inhibition
B4: hOB SFRP-1 (human osteoblast secreted frizzled-related protein-1), wild-type full length (receptor)
chain: SEYDYVSFQSDIGPYQSGRFYTKPPQCVDIPADLRLCHNVGYKKMVLPNLLEHETMAEVKQQASSWVPLLNKNCHAGTQVFLCSLFAPVCLDRPIYPCRWLCEAVRDSCEPVMQFFGFYWPEMLKCDKFPEGDVCIAMTPPNATEASKPQGTTVCPPCDNELKSEAIIEHLCASEFALRMKIKEVKKENGDKKIVPKKKKPLKLGPIKKKDLKKLVLYLKNGADCPCHQLDNLSHHFLIMGRKVKSQYLLTAIHKWDKKNKEFKNFMKKMKNHECPTFQSVFK

Wnt antagonist function compared to the wild type SFRP-1 (TCF-Luciferase reporter) (% of wild type SFRP-1): 40
B5: SFRP-1 tyrosine 73 to alanine mutant (receptor)
chain: B4 chain with Y42A

loss of Wnt3 antagonist activity relative to SFRP-1 (TCF-Luciferase reporter) (% loss of activity): 45
B6: SFRP-1 CRD mutant … to … (receptor)
chain: B4 chain with H38K, N39S, V40L, G41P, Y42W, K43N, K44M, M45T, V46K, L47M

Wnt antagonist function compared to the wild type SFRP-1 (TCF-Luciferase reporter) (% of wild type SFRP-1): 40
B7: SFRP-1 tyrosine 73 to serine mutant (receptor)
chain: B4 chain with Y42S

loss of Wnt3 antagonist activity relative to SFRP-1 (TCF-Luciferase reporter) (% loss of activity): 30
B8: SFRP-1 CRD mutant LLEHE (amino acids 81-85) to HLHHS (receptor)
chain: B4 chain with L50H, E52H, E54S

loss of Wnt3 antagonist activity relative to SFRP-1 (TCF-Luciferase reporter) (% loss of activity): 35
B9: SFRP-1 mutant with a total of 10 lysine residues in the hyaluronan domain changed into alanine (receptor)
chain: B4 chain with K197A, K198A, K199A, K200A, K203A, K208A, K209A, K210A, K213A, K214A

loss of Wnt antagonist function relative to SFRP-1 (TCF-Luciferase reporter) (% loss of function): 20
B10: SFRP-1 tyrosine 73 to phenylalanine mutant (receptor)
chain: B4 chain with Y42F

Wnt antagonist function compared to the wild type SFRP-1 (TCF-Luciferase reporter) (% of wild type SFRP-1): 40
B11: SFRP-1 tyrosine 73 to asparagine mutant (receptor)
chain: B4 chain with Y42N

Wnt antagonist function compared to the wild type SFRP-1 (TCF-Luciferase reporter) (% of wild type SFRP-1): 40
B12: SFRP-1 tyrosine 73 to aspartate mutant (receptor)
chain: B4 chain with Y42D

loss of Wnt3 antagonist activity relative to SFRP-1 (TCF-Luciferase reporter) (% loss of activity): 15
B13: SFRP-1 hyaluronan-binding domain mutant, distal lysine residues to alanine (receptor)
chain: B4 chain with K208A, K209A, K210A, K213A, K214A

loss of Wnt3 antagonist activity relative to SFRP-1 (TCF-Luciferase reporter) (% loss of activity): 60
B14: SFRP-1 CRD mutant KKMVL to NMTKM (receptor)
chain: B4 chain with K43N, K44M, M45T, V46K, L47M

loss of Wnt3 antagonist activity relative to SFRP-1 (TCF-Luciferase reporter): ~40 % loss of activity
B15: SFRP-1/SFRP-2 (1-248/238-295) chimera (receptor)
chain: SEYDYVSFQSDIGPYQSGRFYTKPPQCVDIPADLRLCHNVGYKKMVLPNLLEHETMAEVKQQASSWVPLLNKNCHAGTQVFLCSLFAPVCLDRPIYPCRWLCEAVRDSCEPVMQFFGFYWPEMLKCDKFPEGDVCIAMTPPNATEASKPQGTTVCPPCDNELKSEAIIEHLCASEFALRMKIKEVKKENGDKKIVPKKKKPLKLGPIKKKDLKKLVLWLKDSLQCTCEEMNDINAPYLVMGQKQGGELVITSVKRWQKGQREFKRISRSIRKLQC

loss of Wnt3 antagonist activity relative to SFRP-1 (TCF-Luciferase reporter): ~40 % loss of activity
B16: SFRP-1/SFRP-2(1-226)/(214-295) chimera (receptor)
chain: SEYDYVSFQSDIGPYQSGRFYTKPPQCVDIPADLRLCHNVGYKKMVLPNLLEHETMAEVKQQASSWVPLLNKNCHAGTQVFLCSLFAPVCLDRPIYPCRWLCEAVRDSCEPVMQFFGFYWPEMLKCDKFPEGDVCIAMTPPNATEASKPQGTTVCPPCDNELKSEAIIEHLCASEFALRMKIKEVKKENGDKKIVLETKSKTIYKLNGVSERDLKKSVLWLKDSLQCTCEEMNDINAPYLVMGQKQGGELVITSVKRWQKGQREFKRISRSIRKLQC

loss of Wnt inhibitory function relative to SFRP-1 (TCF-Luciferase reporter) (% loss of function): 30
B17: 3' His tagged SFRP-1 (receptor)
chain: SEYDYVSFQSDIGPYQSGRFYTKPPQCVDIPADLRLCHNVGYKKMVLPNLLEHETMAEVKQQASSWVPLLNKNCHAGTQVFLCSLFAPVCLDRPIYPCRWLCEAVRDSCEPVMQFFGFYWPEMLKCDKFPEGDVCIAMTPPNATEASKPQGTTVCPPCDNELKSEAIIEHLCASEFALRMKIKEVKKENGDKKIVPKKKKPLKLGPIKKKDLKKLVLYLKNGADCPCHQLDNLSHHFLIMGRKVKSQYLLTAIHKWDKKNKEFKNFMKKMKNHECPTFQSVFKHHHHHH

inhibition of Wnt3-mediated upregulation of the 16xTCF-Luciferase activity, relative to SFRP-1 (% less active): 25
B18: human SFRP-2 (receptor)
chain: LFLFGQPDFSYKRSNCKPIPANLQLCHGIEYQNMRLPNLLGHETMKEVLEQAGAWIPLVMKQCHPDTKKFLCSLFAPVCLDDLDETIQPCHSLCVQVKDRCAPVMSAFGFPWPDMLECDRFPQDNDLCIPLASSDHLLPATEEAPKVCEACKNKNDDDNDIMETLCKNDFALKIKVKEITYINRDTKIILETKSKTIYKLNGVSERDLKKSVLWLKDSLQCTCEEMNDINAPYLVMGQKQGGELVITSVKRWQKGQREFKRISRSIRKLQC

From patent US20070072239A1 (Pfizer, published 2007)
